{"source": "paper doi:10.1101/2020.06.03.132209", "about": "(bioRxiv, 2020)", "molecular_target": "T1, Dehydrodolichyl diphosphate synthase (DHDDS), full length (1-333), untagged (human, UniProt Q86SQ9-1 1-333)", "T1 sequence": "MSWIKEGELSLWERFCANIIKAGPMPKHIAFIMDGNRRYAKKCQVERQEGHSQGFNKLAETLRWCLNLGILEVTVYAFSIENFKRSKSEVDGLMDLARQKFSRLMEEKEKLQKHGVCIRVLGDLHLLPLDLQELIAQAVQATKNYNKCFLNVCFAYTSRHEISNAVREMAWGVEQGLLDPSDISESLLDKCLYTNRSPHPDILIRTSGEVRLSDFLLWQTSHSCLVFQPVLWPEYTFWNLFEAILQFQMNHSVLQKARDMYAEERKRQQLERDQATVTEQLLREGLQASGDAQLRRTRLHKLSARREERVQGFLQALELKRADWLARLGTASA", "experiment": "crystal structure", "data": [{"binder": "NgBR^79-293 (Nogo-B receptor, N-terminal 78 amino acids deleted) (domain or fragment) AAAHHRMRWRADGRSLEKLPVHMGLVITEVEQEPSFSDIASLVVWCMAVGISYISVYDHQGIFKRNNSRLMDEILKQQQELLGLDCSKYSPEFANSNDKDDQVLNCHLAVKVLSPEDGKADIVRAAQDFCQLVAQKQKRPTDLDVDTLASLLSSNGCPDPDLVLKFGPVDSTLGFLPWHIRLTEIVSLPSHLNISYEDFFSALRQYAACEQRLGK", "values": [{"measurement": "binding result", "value": "binds"}]}]}
